This assay deals with Ubiquitin-B+1 (UBB+1), untagged, expressed in HEK293FT cells. Kind of assay: co-IP with anti-UBB+1 antibody from HEK293FT cells, immunoblot; MS/MS of co-purified proteins.

B1: UCH-L1 (Ubiquitin C-terminal hydrolase L1), endogenous in HEK293FT cells (enzyme, UniProt P09936 1-220, looked up)
chain: MQLKPMEINPEMLNKVLSRLGVAGQWRFVDVLGLEEESLGSVPAPACALLLLFPLTAQHENFRKKQIEELKGQEVSPKVYFMKQTIGNSCGTIGLIHAVANNQDKLGFEDGSVLKQFLSETEKMSPEDRAKCFEKNEAIQAAHDAVAQEGQCRVDDKVNFHFILFNNVDGHLYELDGRMPFPVNHGASSEDTLLKDAAKVCREFTEREQGEVRFSAVALC
notes: Endogenous protein in the lysate of HEK293FT (human) cells; also called UCL-H1; endogenous UCH-L1
Consider B1, for which the binding result is reported as “binds”.

The values are drawn from patent US20220365073A1 (TECHNION RESEARCH AND DEVELOPMENT FOUNDATION, published 2022).
